Experimental data reported in the DeepSol protein solubility set.

Assay: soluble on expression in E. coli; label from the status in PepcDB or PDB records

| Sequence | soluble on expression in E. coli |
| --- | --- |
| MGSDKIHHHHHHMVETYTLNPNLTKTAAVAEWLQQRIDWHIYLPNQRVPSVRKLAKLLNISSFTVVQAYEQLVATGVLIAKPSSGYYVNTQSKLVQPNDDKRKVFKHPVIDTRWLVQQVFSDIPHNRSPGVGTLPRDWVRNDKMEWAIRQVTQQADSFIYDYGNVQGYLPLRQQLVQHLHTLGMQTHADHVITTAGVSQAVTMVARLLTQAGDTVVVDGPGWYWLSSCLQQQGLNVVSVERDHQGPNIEQMQKLFAAHRPKLYLTNSVLHNPTSYNLHPARAHQVLNLIHEYDAYIFEDDLYAAFVPGGQVLRYASLDQFERVFYATGFSKSMASGWRVGMLVCPDNYIDDVLRIKTLSNSNTPEFGERVCHHLWTHGEYRRQIKKVQQHLYRAHERMRKALPKIRLIYPEHTQAGLFVWVDMGQDTSQLALDAYKEGWLVAPGQLFYPDVSASTHLRLNVSTTSDEFLRWLGDYLDKSCQY | not soluble |
| MIDLYYAPTPNGHKITLFLEEAELAYRLLKVDISKGNQFRPDFLAISPNNKIPAIVDHAPADGGQPLSLFESGEILLYLAEKSGKLLSGELRERHTTLQWLFWQVGGLGPMLGQNHHFNHFAPQAIPYAIERYQVETQRLYNVLNKRLETSPWLGGDHYSIADIASWPWVNAHQRQRIDLDTYPAVYNWFERIRTRPATARALLQAQLHCNSTKA | not soluble |
| MAHYPPSKDQLNELIQEVNQWAITNGLSMYPPKFEENPSNASVSPVTIYPTPIPRKCFDEAVQIQPVFNELYARITQDMAQPDSYLHKTTEALALSDSEFTGKLWSLYLATLKSAQYKKQNFRLGIFRSDYLIDKKKGTEQIKQVEFNTVSVSFAGLSEKVDRLHSYLNRANKYDPKGPIYNDQNMVISDSGYLLSKALAKAVESYKSQQSSSTTSDPIVAFIVQRNERNVFDQKVLELNLLEKFGTKSVRLTFDDVNDKLFIDDKTGKLFIRDTEQEIAVVYYRTGYTTTDYTSEKDWEARLFLEKSFAIKAPDLLTQLSGSKKIQQLLTDEGVLGKYISDAEKKSSLLKTFVKIYPLDDTKLGREGKRLALSEPSKYVLKPQREGGGNNVYKENIPNFLKGIEERHWDAYILMELIEPELNENNIILRDNKSYNEPIISELGIYGCVLFNDEQVLSNEFSGSLLRSKFNTSNEGGVAAGFGCLDSIILY | soluble |
| MRFEYDLLIVAASPLALDIAYRCAPLGRIGLVIPPPDGQWQWQWQRWWLSQFPPRTLDAQHWQHFQAHLSHGQRRYAPAVLELVGVDVITGVGEFVWRPRCHFQVGGDRLYARGYLLLDAPAAMDFQDMDALSRIELACWHYWSGKAPNADAQGLPVVTTEDAWFNDRLHAALKALGLAIPGSGKRKAPDFSPLHLHPLQRDAQGWLRLNRYGRTSHPQIYACGGWQRGYHLPSLTYFEAFAIARQILQRRPIPLDYRSQPWWIALPIPMARVGWNGRQAQQSLREPIQLWEIQQWSPEGQSLGQVVINRQGRLLGATLIGRAAIASSRIFGRCLDENAFAAITYAGWELDCQRQRSPKARRLPKSGSGLDSPLPLEHHHHHH | soluble |
| MGSDKIHHHHHHMSFISKGAKIGENLKIGRNVVIEDGVVIGNNVMIGHNVVIRDGTIVGDNCVIFDGTVLGKLPFKSAISAVTEEKEFPPLKIGNGVTIGANCVIYRGSVLEDFVFVGDLVVIREDVKIGPYTVIGKGVTVENRTTIGRYVKIETNAYITALSTIEDYCFIAPEVTFTNDNFLGRTEERKKFFKGPTLKKGARIGANATILPGVVVGEDALVAAGSVVTRDVPDRKIVMGIPARVVRDVPEEQLLDNQSYYKEESS | not soluble |
| MEDRIQKAVELFKSGYNCSQSVVAAFADMYGFTQEQAVRMSASFGGGIGRMRETCGAACGLFLIAGLETGATEATDREGKAANYAVVQELAAEFKKRNGSLICGELLGLKKKEPISTVPEERNTQYYSKRPCAKMVEEAARIWVEYLEKHPK | not soluble |
| GPGSMIFFFTLNLHDRSSLDLRVEFLFSCSDSSDSVAQHLRAIGMRGQLVQKGAATLYAGPKIASYTDACEAPVAMWEGAIPLKHERVLNGGVATRVVKKTYSHPPEIHPTNLSFNDIDSMYCLGNDELIKYFPEGVGGKMMQLMPPGHPRGFLYRKQSHLLNCFIDKLPFWQSKEKALRSLTNGRPGFIMDGPTGCGKSALLCQAVHYARSRDIITLYIANAKAWTHGEWCWPSTILPGFFDAPDAAREFLRTVAEANGSLLQAWELRVTPQDLPLEQGEKQPRSLYDLCEWGHRAVAPASIDRQSVCIKFFFDEIRAEKTKPIIIAVDGWNLFSHETHFRYPHPDFLRTLTTLNDGLTDVDLYPQELPRIPASRLSFVRGLNKLILSKQDPNKFFITCTTRDFKPFDGVSGFADVENDRFKNSLDEYAPYDPEKDSFFHPMQVENFTEYEYRAFLRFAINSGELAGLGWGPMWHYSSDFERKLYKIDFMSDRNPQRVVDHYHQELVWRYEYKRTRQKQYLLARRKMWQGAEVSNPLRNGK | not soluble |
| MSLRPRQLLLATDLGARCDRALDRAIQLSRAWHAALTVVHAVEQVELIDDEPSWRQPPDAALAIQAELEDELGEAGLSSIDARVLKGKPSEVVLKVAEEVEAELILTGVKRDGALEKALLGDTVTELARQSRVPVLVVKKRLRKPYGRIVVATDLSELSRAALARAVDLFGPDNLVVFHASFAHFASRMDDRVAYESELRSDAIQNCRDFIRDVAGEEAAATMEVMVEYGEPDLLLEKYVQDKQVDLVVVSTRGRSGLLGVLLGSVAMRILDSVACDVLIVRSEGHHHHHH | soluble |
| MWLSSEELSAKKTACHVRNVESNKEFADSDIVASFVHNRPKDLKNLTFERHGKGGRKKAPIFSVKGDISEHVVEVGADVNCLDEGFDFAVALVDKRTGEATYRPARFYSFESKFSEDIEKIFSDKKESSSEEYKNDFSIGAEKWAEKRRQLTSNFGSSKKIKMDEAAQRRTINQETLDEMRKTAFASNSNVKTEDGAADVKLENITMMNKAESSILPPAVQTELSRDIYPISLFLEDIEIDAIESIATELMEKKKKEKLEAGIPECVTLIMYNEKTKQRAAAYLLLSTMIEILTKMGKQRQLLRKDLSELKMPDILRQKVQAQFFNDSTNEKGYTGRGAERIRLNVTDYDRFIAHTLALALTLAPEHKVPITPFQQALSYQPSKLEKMFQALGADLIRLDVASAQTLRSLRAAILLKPPSLEQKGPRKIIRR | not soluble |
| MEKSWYVVHTYSGYENKVKANLEKRVESMGMQDKIFRVVVPEEVEVEMKNGKEKLMKRKVFPGYVLVELIMTDDSWYVVRNTPGVTGFVGSSGSGSKPSPLLEEEVVTIMKHMGMDNEVVDFDFELHETVRVNEGPFADYTGAIEEIDVEKKKVSVLVDMFGRETPVELDFHQIEKL | soluble |
| MSASGLLVEKSGPLSLIQDFGRFGLAHIGITQGGPVDDYAYSWANHLLGNRVNCSAIEITLGNACFIALQDCHLAICGGDLNASVDGHPIANWSDFSIKKGQKLQFGMAKNGLRAYLAVKGGFNVPEHLGSSSTVLREALGGLEANGNALKAGDVLPFDAHSLPNHKPRIMTFRFKPDYNLPITLRVIEGYQCDDFSVEAKEKFYSGSFAISPDSNRMGYRLEGNTVKPPYDGILSEGIALGAIQIPHDGNPIVLLNDHQTIGGYPKLGCVARIDLPRLAQAKPGQKVRFVKGDRQGLQDVWCQWAQFFGY | not soluble |
| SVKRKSSEGQEQDGGRGIPLPIQTFLWRQTSAFLRPKLGKQYEASCVSFERVLVENKLHGLSPALSEAIQSISRWELVQAALPHVLHCTATLLSNRNKLGHQDKLGVAETKLLHTLHWMLLEAPQDCNNERFGGTDRGSSWGGSSSAFIHQVENQGSPGQPCQSSSNDEEENNRRKIFQNSMATAELFVFLFAPLVHRIKESDLTFRLASGLVIWQPMWEHRQPGVSGFTALVKPIRNIITAKRSSPINSQSRTCESPNQDARHLEGLQVVRETFQSDSISPKATISGCHRGNSFDGSLSSQTSQERGPSHSRSTFHFPP | soluble |
